From the RNAGym collection of RNA variant scans (doi:10.7554/elife.80360)

B1: Twister Ribozyme (parent)
chain: AACACUGCCAAUGCCGGUCCCAAGCCCGGAUAAAAGUGGAGGGGGCGG

Variants of: B1
Assay: self-cleavage, relative activity (ratio to wild type); higher = more cleavage; co-transcriptional

Variant	self-cleavage
C8A C9G	0.122
C8A C9A	0.0842
G7C G48U	0.0851
G7C G48A	0.0718
G7C A30G	0.0729
C8A G38C	0.161
C8A G38A	0.343
G7C C8A	0.0479
C8A G45C	0.141
C8A G45A	0.203
C8A G45U	0.176
C8A G39U	0.123
U6G G41U	0.129
U6G G41A	0.156
G7U U18A	0.0251
G7U U18G	0.0649
G7U U18C	0.0819
G7A C21G	0.0478
C8A A33C	0.279
G7C G41A	0.0519
G7A A35C	0.493
C8G G42U	0.147
G7A C14A	0.371
C8A C27A	0.0935

Variant	self-cleavage
C8A C27G	0.0579
G7U G41U	0.0899
G7U G41A	0.0662
G7U G45C	0.118
G7A U18A	0.0724
G7A U18G	0.066
G7A U18C	0.0816
C8A G43C	0.153
C8G G13A	0.405
C8G G13C	0.0604
G7A G41C	0.143
G7A G41A	0.122
C8A C26G	0.0829
C8A C26A	0.106
G7A G47A	0.271
G7A U12A	0.441
C8G A40G	0.146
C8G G38A	0.325
G7C A33C	0.0837
G7C A33G	0.064
G7C A33U	0.0354
C8G A11C	0.55
C8G A11U	0.691
G7A A11G	0.48

Variant	self-cleavage
G7A A11U	0.573
C8G C19U	0.113
C8G C25U	0.112
C8A A22G	0.107
C8A A22C	0.45
U6G G48U	0.308
C8A C14U	0.597
C8A C14A	0.529
C8A C14G	0.0608
C8A G28A	0.281
C8A C15A	0.134
C8G A10G	0.592
C8G A10C	0.872
G7A C25U	1.09
C8G G28U	0.0873
C8G G28C	0.083
G7C C9A	0.0747
G7C C25U	0.128
C8A C25A	0.0389
G7A G24C	0.0973
G7A G24A	0.0655
C8A C46U	0.46
G7U A10G	0.237
G7U A10U	0.0807

Variant	self-cleavage
C8G G48A	0.227
G7C G47A	0.0829
G7C G47U	0.0642
G7C C20A	0.0744
G7U U37G	0.0777
G7U U37C	0.0889
C8A G24A	0.18
G7A C8U	0.0616
G7A C8G	0.153
G7A C8A	0.0866
G7U C9G	0.0496
G7U C9A	0.0711
G7C G42U	0.0563
G7C C15U	0.0844
G7A G36C	0.113
G7A G36U	0.108
G7C C14G	0.0351
G7C C14A	0.0617
G7C G17A	0.0642
G7C G17C	0.0528
G7C U37G	0.062
G7C U37A	0.0472
C8G U31G	0.464
G7U C26U	0.0446

Variant	self-cleavage
G7A G28C	0.227
G7A G28A	0.215
G7C A35G	0.0589
G7U C25G	0.401
G7U G39U	0.0651
G7A G42C	0.258
G7A G42A	0.176
G7A C46U	0.579
G7A C46G	0.414
U6G G47C	0.179
U6G G47A	0.179
C8G A33U	0.279
C8G A33G	0.232
G7A A34G	0.111
G7A A34C	0.118
G7C A22U	0.0623
G7C A22G	0.0331
G7C G39A	0.0735
G7C G39U	0.058
C8G G39U	0.129
G7A C15A	0.111
G7A C15U	0.377
G7A C27U	0.11
G7A C27G	0.0632

Variant	self-cleavage
C8A U37A	0.225
G7U G42C	0.0955
G7U G42A	0.0796
G7U A11G	0.131
C8G G41U	0.129
U6G U37G	0.196
U6G U37C	0.159
U6G U37A	0.112
C8U A30U	0.662
C8A A23C	0.0825
C8A A23U	0.0553
C8A A23G	0.0496
C8A C21A	0.0745
C8A C21G	0.076
C8A A32U	0.275
G7A G29A	0.325
G7U C21A	0.0755
G7C A23G	0.13
G7C A23C	0.0613
G7U G36C	0.0408
G7U G36U	0.0615
G7U G36A	0.0763
G7A C9A	0.0651
G7A C9G	0.0915

Variant	self-cleavage
G7U G38A	0.0965
C8A U31A	0.433
C8A U31C	0.652
C8A A40C	0.113
C8A A40U	0.2
C8A A40G	0.17
C8G A35C	0.478
C8G A35G	0.222
C8G A35U	0.566
G7U C8A	0.0463
G7U C8U	0.0467
C8A G29A	0.327
C8A G29C	0.0825
C8A G29U	0.295
C8G C27U	0.14
C8G C27A	0.0513
G7U C19A	0.0864
C8G C14U	0.625
C8G C46G	0.344
C8G C46A	0.231
C8A C19G	0.0926
G7A G43U	0.152
G7U U31C	0.111
